# Assay results published in the supplement of paper PMC9170038.
# System: K4 kissing-loop RNA reporter
# Experiment: apparent KD of K4 kissing-loop reporter; higher = weaker reporter binding
# Details: Eterna round: R107
# Procedure: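 RNA-MaP round R107: designed RNA switches with theophylline, tryptophan, arginine or FMN aptamers are transcribed on-chip within common flanks. They are titrated with a labelled K4 kissing-loop RNA reporter in RNA-MaP buffer (100 mM Tris pH 7.5, 80 mM KCl, 4 mM MgCl2), without ligand or with the indicated ligand. Median apparent KD per design.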
# [1] = input ligand: theophylline 20 uM
# [2] = input ligand: tryptophan 2.4 mM
# 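Further: bound reporter read as fluorescence of individual clusters on recovered sequencing chips by microscopy, with normalized cluster intensities fitted with a binding model.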
Sequence,apparent KD of K4 kissing-loop reporter (input ligand: FMN 200 uM) [nM],apparent KD of K4 kissing-loop reporter (input ligand: arginine 13.2 mM) [nM],apparent KD of K4 kissing-loop reporter (input ligand: none) [nM],apparent KD of K4 kissing-loop reporter [1] [nM],apparent KD of K4 kissing-loop reporter [2] [nM]
AAGUACACGAUAGUGUACACCUAGUGAUGUUAGGAUAUGCAGAUAUGCAGAAGGAACAAGUCAUCUGACAAUAGUCGGAUGACAA [FmnAX 6 #OpenEnded #K4Early],577,75.5,109,110,98
UUUAACGAGUGAUGUUCGUAAAGUAAUAGUUAGGAUAUCGUUUUUUCGAGAAGGAACUUCGAAGUGAUACGAAAGUAUCGCUUCG [FMN A 8],136,192,192,205,152
UGAGGGAUCUCGGCCGCCACUCGUGGGAAAUGGGCCUCAGGGAUAUAGUGAUGUUAUGUAAAGAAGAGGACCGGGAGAAGGAAGG [ExTryptoB.Dh],230,229,320,386,203
UAUCUAUGCUCGGCCGCCACUAGGACCGGGUAGUCUCUAGUGAUGUUAGUCUCUACGGCCGCCACUAGGACCGGGAGUGUAGAUA [KL-SSTryp-B16 #DoubleAptamer],286,235,224,225,82.5
GGGAGAAGAGCGGCCGCCACUCAGAAAGAAGAAGAAUAUAGUGAUGUUAUAUAGGAAAGGAAGAAGAGGACCGGGCUUAAGAGGG [#18 K4 Tryptophan B Same State],144,132,149,177,171
CAAUGAAUAUAAGAUGAUAUCAUAACAGAAGGAGCGAGUGAUAACUCAGGUAGGUCGCUGAAUUUAUCGAGUGAUGUUCGAUAAA [Same State Arginine A GF10],208,158,197,176,183
GGUGACAACCAGAAGUGAUGUAUAGAAUAGCGAGGACCGGUACGGCCGCCACUCGUGAAGAGAAAGGAGUGAUGUUCCGUAAUGG [Kazoo C4],250,260,271,243,85.1
GUAUGUGGAAACACGUACUUAUAUCCUCGACAGGAUAUGCGGAAACGCAGAAGGGUCGCCAACGAGUUUAUCCAGUGAUGUUGGA [Ex FMN A 15],347,296,362,335,350
UCGCCCGAUGGAGAUACCAGCAGUUGUGCAGUGAUGUUGCACAAGUACUCGCUCCAUUGCUGCCCUUGGCAGCUCCCGGCAAACA [Enraed],93.3,85,87.6,82.8,89.3
AAAUAAAGCAGUCACCCAGUGAUGUUGGAAGGAGCGUGCGAAAGCACAGGUAGGUCGCCGAUAAGGACAAAGUCCAGUGGCUGCA [#SwitchBubble 28 #K4Early],458,344,595,590,283
UAAUAAAUUCCAGCGAUAUCGCUCUUCGAAGGAGCGGACGAAAGUCCAGGUAGGUCGCGGAGAGUGAUGUUCUUUGCGGCGCUGG [whbob_Ex_Arginine_A_2t133],450,177,356,298,266
UUUAACGAGUGAUGUUCGAAAAGUAAUGGUGAGGAUAUCGUUUUUUCGAGAAGGCACCUCGAAGUGAUACGAAAGUAUCGCUUCG [FMN A 3],172,332,315,314,266
UGGAGUUGACGAAAAGUCAACUCCUGAGAAGGAGCGGACGAAAGUCCAGGUAGGUCGCUCACUACCAGUGAUGUUGGUACUUAAA [#OpenEnded 4],152,235,198,228,192
GCGCGUCAUGUCAGCGGUGACUACGUCGAUACCAGCAGGGAAACCUGCCCUUGGCAGCGACGCGCUGGAGUGAUGUUCCGACAGA [#2 Exclusion - Theophylline A Attempt #5 (HarryS)],218,247,192,309,176
UGUCUUUUUUUGAUGUUUUUUGUAUAAUGGCAGGAUAUCGUAGAUGCGAGAAGGGCUUUUAUGCGUUAUGAGUGAUGUUUGUAGG [vjjbvmullin],329,260,297,332,225
AAGCAGUCAGGAUCGAAGAUCCUGCAAUACCGAGGACCGGUACGGCCGCCACUCGGAGUGAUGUUCCGAAGACUGCAAAAUAAAA [#SwitchBubble 7],436,255,243,57.9,152
UUUAGGAGUGGUGUUGAUUAGGGAGCGGAAGGAGCGCCGAGGAAGGCAGGUAGGUCGCCGGAUUAUAGUGAUGUUAUGAAGAGGG [ExArg.M],875,723,792,912,654
GCGCGGCACAGUGAUGUUGUGCCUCGGAGACGAGGACCGGUACGGCCGCCACUCGUCCGCGCAGCUGAGGCAAAAGCCUCGGCAA [Omei KL Tryp A SS B v4],382,393,473,447,128
AGACUACCACACUGUCAAUAGACAGUGAACUAGGAUAUGCUGAUAAGCAGAAGGAGUGAUGUUCCUUGGUAGUCAAUAAAAUAAU [FmnAX 13 U67],308,270,298,330,289
GUCCACACUGCAGGAUAUGGAGAAAUAGCGAGGGAGCUUGGAAGCACGCCUCUGGCAGUGAUGUUGCCAGAAGGGCGGUGCGGCG [Dilazasole],106,76.9,75.2,76.9,80.8
CGAUACGGAAAUACGUGUCUCUAUUCAGAAGGAGCGUGGUAGUACACAGGUAGGUCGCUGAAUUUUAAACUAGUGAUGUUAGUCU [JR_SSArginiA_Sub005],317,281,331,292,259
AAGCAGUCACUCGAACCCAUCGAAGAUGGGCGAGGACCGGUACGGCCGCCACUCGGAGUGAUGUUCCGAAGACUGCAAAAUAAAA,329,367,293,341,555

Sequence,apparent KD of K4 kissing-loop reporter (input ligand: FMN 200 uM) [nM],apparent KD of K4 kissing-loop reporter (input ligand: arginine 13.2 mM) [nM],apparent KD of K4 kissing-loop reporter (input ligand: none) [nM],apparent KD of K4 kissing-loop reporter [1] [nM],apparent KD of K4 kissing-loop reporter [2] [nM]
CCGGCCCAGCCGGAUACCAGUGCGCCGCAGGGAACGGCGGGCCCAGAGUGAUGUUCGGGACACCCUUGGCAGCCGCCUGGGUCGC [#2 Same State - Theophylline B Attempt #27 (HarryS)],234,197,309,314,297
UGAUACCAGACUGAUACCAGCUAGUGAUGUUAGCUGAUAAACAAACAGGCAAAGCCUGCUAGCCCUUGGCAGCAGUCUGGUAUCU [TheoBX 12 #SwitchBubble #StaticStem],206,180,193,359,202
UGACUGGAUGGAAGGAGCGCUAAACUCCUAGUGAUGUUAGGGACAUGAGGCACAGCCUUGAAGCAGGUAGGUCGCCAUCUAGUCU [FiskerMod 28 - Jieux - Same State - Arginine B],197,135,176,166,174
GAAAGAAAGAAUGAUACCAGACACCCGAGUGAUGUUCGGAGCAGAGUGAUGUUCUUUUAAGUCCCUUGGCAGCAUAAAAGAAAAG [whbob_SS_Theo_B_sa82],109,138,153,159,119
CCUCACGUAGGACUAGUGAUGUUAGACUACCGAGGACCGGUACGGCCGCCACUCGUCGUACAAGAUAACCAUCUGCCAGUAUACA,122,103,117,107,168
CAUACGCAUGGAGGAUAUGAGAAUUCUCAUGUCAUUUAAUAUUCUCAGUGAUGUUGAGGAUGUGGCUCAGAAGGCCAUGUGUAUG [Ex FMN B 21],205,325,423,366,379
CUGACCAACAGCGAUACCAGCGUGGAGUGAUGUUCCGUGGAUCGGAGUGAUGUUCCGAAGCGCCCUUGGCAGCGCAGAAGCAGGA [Exclusion Theophylline B GF11],197,136,201,150,152
UGAUUUAACUGAAGGAGCGGCAAUUGAUAAGUAAAUAUAGUGAUGUUAUAUAAGAUAGAGAGCCAGGUAGGUCGCAGAGGUAUGA [ExArgB.L],193,159,158,150,139
AAGAAGAAUGGAAGGAGCGAGCAGAAAUAACCAGUGAUGUUGGAAAGCCUUAUUGCUUAAGCUCAGGUAGGUCGCCAAGAAAAGA [Mostly trial and error],158,181,205,226,171
GUAUGUGGAAACACGUACUUGUAUCCUAGGAAGGAUAUGCGGAAACGCAGAAGGUCCACCGGCGAGUUUAUCCAGUGAUGUUGGA [Ex FMN A 10],260,275,274,318,248
CGCCGCAAGGCGGGCCGGCCCACUCCGGAAGGAGCGCCCGCAAGGGCAGGUAGGUCGCCGGAGUGAUGUUCCGGUGGCCGGCCCG [#2 Exclusion - Arginine A Attempt #3 (Inspired by Omei)],433,244,376,592,354
UGUGAUGUGUAGUGUUAUGUUUUGAGGGAUACCAGAGUGUUUUUAUUCCCUUGGCAGCUUGAGUGAUGUUUGAUGUUGUUGUUGU [knnumullin],303,166,232,213,187
UAGUCCUAGUGAUCGUUAUCACGUGGUGGGCGAGGACCGGUACGGCCGCCACUCGACUAUGCAGUGAUGUUGCAAUCCGGACAAU [Exclusion - Tryptophan A (Freestyle 15)],294,436,477,325,145
CGCGCGCGCUGAGAGGCGCGCGCGAAUGAUACCAGUAUAUAAGAAUACCCUUGGCAGCAUAAGAAAGAUAUAGUGAUGUUGUAUA [SSTheophA.D],75.3,199,43.1,201,29
CUUAAGAUAUGAGUGAUGUUCAUGUCCGAAGGAGCGUGCGAAAGCACAGGUAGGUCGCGGAUGUGAGUGAUGUUCAUGUAAGCGA [KL-XArg-A12 #analogue],172,105,119,135,153
AGAUUCGACACGGCCGCCACUUCCGGUGGCUGGUGUCAUGGUGCGCGUGAGUGAUGUUUAUGUGGGAGGACCGGGUGUUGAGUCU [whbob_Ex_Tryp_B_w42],616,393,654,559,704
AAAAUAAAGGAGUGAUGUUCCAUAACGGAUACCAGCCACGAAAGUGGCCCUUGGCAGCUGUGCCAGUGGACGAAUAACGUCCACA [#OpenEnded 6 #StaticStem #K4Early],164,287,237,280,164
CGGCGGAGUGAUGUUCCACCUACUGCGGAUACCAGCUUUGCCAGAGGCCCUUGGCAGCCGCACGGCUCAGUGAUGUUGGGUUGCG [Same State Theophylline A G12],237,162,227,219,195
UACAUAUUAUUUAACAUAAAUUUUACAGAAGGAGCGUGAUCAUUCACAGGUAGGUCGCUGAACUAGUGAUGUUAGUUUUAUUUUU [JR_Nu_ExcArginiA_Sub025],62.7,96.1,71.5,97,57.3
GGGAGCAAAGCUCCCGGAUGCUAUUACCAGUAGGAUAUCUGGAAACAGAGAAGGGCUAAGCCAGUGAUGUUGGUUUCGAGCAUCC,596,575,754,575,514
GGAGUUACCUGGGAUACCAGUCGGAGGCCCAGAGCUCGGAGUGAUGUUCUGGGAUGUUUCGGCCCUUGGCAGCUCUGGGUCUCCC [#2 Exclusion - Theophylline B Attempt #7 (HarryS)],1690,563,1040,895,718
